T1: murine ERFE (Mus musculus, UniProt Q6PGN1)
T1 sequence (Q6PGN1 25-340): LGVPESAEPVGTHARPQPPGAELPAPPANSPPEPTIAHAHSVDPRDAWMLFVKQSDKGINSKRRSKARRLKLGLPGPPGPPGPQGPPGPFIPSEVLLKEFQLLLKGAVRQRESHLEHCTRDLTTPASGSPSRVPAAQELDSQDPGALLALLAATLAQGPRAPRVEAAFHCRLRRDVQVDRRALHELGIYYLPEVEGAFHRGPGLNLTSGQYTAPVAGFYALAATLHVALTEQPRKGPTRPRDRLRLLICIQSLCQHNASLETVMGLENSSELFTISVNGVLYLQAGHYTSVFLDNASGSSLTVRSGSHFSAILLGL


Tests used:
Huh7 cells = test: Activity of erythroferrone domains and subunits in Huh7 cells (qRT-PCR); format: cell-based; settings: FIG. 8A
Description: FIG. 6. The C1q domain is not required for erythroferrone activity: (FIG. 6A) Huh7 cells were treated for 24 h with full-length or C1q domain of human erythroferrone (10 μg/ml). (FIG. 6B) Huh7 cells were treated for 24 h with adipoferrone (construct containing N-terminal domain of adiponectin and C1q domain of erythroferrone) or C1q trimer (Tri-C1q) derived from mouse erythroferrone at 10 μg/ml. Gene expression measured by qRT-PCR. Data represents mean+standard deviation (n=3). ***p<0.001; ****p<0.0001.
FIG. 8. Erythroferrone subunits designed based on predicted patterns of furin cleavage differ in their ability to suppress hepcidin: (FIG. 8A) mono-Fc-huERFE A4 construct suppresses hepcidin expression, (FIG. 8B) Huh7 cells were treated for 24 h with human erythroferrone subunits that were designed to represent all the potential Erfe subunits that could be formed assuming activity at both in silico-predicted furin cleavage sites. (see FIG. 7A). Gene expression measured by qRT-PCR. Data represents mean+standard deviation (n=3). ***p<0.001; ****p<0.0001.
Erythroferrone is a member of the C1q/TNF-related protein (CTRP) family and comprises a structure composed of a signal peptide, an N-terminal, a collagen-like domain, and a globular C terminal domain homologous to complement protein 1q (C1q). […]

furin = furin (Homo sapiens, UniProt P09958); test: Furin cleavage of wild-type and RARR-AAAA (A4) Erfe mutant, Coomassie staining; format: biochemical; settings: RARR site mutated to AAAA vs wild-type
Sequence of furin (P09958 108-794, species assumed): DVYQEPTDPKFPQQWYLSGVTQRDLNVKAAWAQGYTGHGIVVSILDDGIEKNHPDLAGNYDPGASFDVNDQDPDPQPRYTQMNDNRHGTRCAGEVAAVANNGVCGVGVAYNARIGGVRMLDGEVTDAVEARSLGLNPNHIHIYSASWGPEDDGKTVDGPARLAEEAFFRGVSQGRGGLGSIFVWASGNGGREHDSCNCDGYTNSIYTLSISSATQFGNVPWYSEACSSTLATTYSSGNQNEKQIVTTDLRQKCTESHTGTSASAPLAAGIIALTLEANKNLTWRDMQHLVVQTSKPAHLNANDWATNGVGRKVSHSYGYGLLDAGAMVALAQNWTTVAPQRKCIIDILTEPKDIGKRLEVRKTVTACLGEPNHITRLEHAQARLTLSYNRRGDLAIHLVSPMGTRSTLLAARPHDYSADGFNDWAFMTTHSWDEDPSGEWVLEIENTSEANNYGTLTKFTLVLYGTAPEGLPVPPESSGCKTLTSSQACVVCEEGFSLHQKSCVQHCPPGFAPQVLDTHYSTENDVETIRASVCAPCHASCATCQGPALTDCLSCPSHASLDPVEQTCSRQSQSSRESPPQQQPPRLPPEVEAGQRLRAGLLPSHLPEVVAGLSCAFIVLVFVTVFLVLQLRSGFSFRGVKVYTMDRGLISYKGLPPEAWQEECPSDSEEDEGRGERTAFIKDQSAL
From the text: FIG. 7. Mutation of the RARR furin cleavage site at the N-terminal of Erfe prevents cleavage by furin. (FIG. 7A) Diagrammatic structure of full length human erythroferrone and potential subunits generated after furin cleavage. (FIG. 7B) Coomassie blue staining of wild-type and an RARR-AAAA(A4) Erfe mutant, in the presence or absence of furin protease.
Sequence analysis of human erythroferrone using the ProP software predicted two furin cleavage sites: RARR at position 42 and RLRR at position 212 (FIG. 7A). The RLRR site is conserved in the mouse ortholog (position 198).

[1] = test system: ERFE suppression of hepcidin production; test: NanoLuc assay: anti-ERFE antibody with monoFC-huErfe and BMP6; format: cell-based; settings: tripling dilutions from 500 nM, BMP6 625 pM, monoFC-huErfe 20 nM
Description: The was measured in-vitro using as follows: A hepcidin transcriptional fusion reporter assay (nano-luc or nano-luciferase assay) was developed to assess the effect of BMPs on hepcidin production in-vitro. A nanoluciferase reporter was inserted at the end of the coding sequence of the endogenous HAMP gene, in HepG2 hepatoma cells, creating a HAMP-nanoluciferase fusion. CRISPR-Cas9 was used to edit the cells with this knock-in reporter construct. A bovine Growth Hormone poly A was included after the nanoLuc to ensure proper mRNA processing. A Puromycin-TK expression cassette was also included 3′ of the nanoluc reporter to enrich for properly targeted clones. Clones that were homozygous for the HAMP-NanoLuc fusion were selected and tested for their response to BMPs and LDN(4-[6-[4-(1-Piperazinyl)phenyl]pyrazolo[1,5-a]pyrimidin-3-yl]quinoline dihydrochloride), a potent ALK2/3 BMP inhibitor, a schematic of the nano-luc construct is shown in FIG. 1B. The effect of representative BMPs (BMP, 2, 6, 9) on the Hamp-nanoLuc signal was assessed. Approximately 20,000 cells (cells split with trypsin/EDTA) were suspended in 200 uL of complete media (DMEM+10% serum+Na pyruvate) and were distributed into each well of 96-well plates and incubated for 24 hours at 37 C. […] Plates were read on Envision with Lum700 program following the manufacturer's instructions. […]

murine ERFE = target: T1, murine ERFE; test: HAMP and ID1 qRT-PCR in HUH7 cells with BMP 5, 6 or 7, murine ERFE and anti-ERFE antibody 15.1; format: cell-based; settings: BMP 5, 6 or 7 2 nM, murine ERFE 1 μg/ml, antibody 10 μg/ml, 6 h
Description: HUH7 cells treated with BMP 5, 6 or 7 (2 nM), murine ERFE (1 μg/ml) and anti-ERFE antibody 15.1 (10 μg/ml), alone or in combination, for 6 h. HAMP and ID1 gene expression was measured by qRT-PCR and expressed as fold-change relative to untreated cells, FIGS. 11A and 11B.

Molecule | hepcidin expression (Huh7 cells) | clipping of human erythroferrone after treatment with furin (furin) | inhibition of ERFE suppression of hepcidin production [1] | block of ERFE activity on BMPs (HAMP and ID1 expression) (murine ERFE)
monoFC-huErfe A4: human erythroferrone mono-Fc construct with RARR furin cleavage site mutated to AAAA (protein) AAGLGSPEPGAPSRSAAAAEPPPGNELPRGPGESRAGPAARPPEPTAERAHSVDPRDAWMLFVRQSDKGVNGKKRSRGKAKKLKFGLPGPPGPPGPQGPPGPIIPPEALLKEFQLLLKGAVRQRERAEPEPCTCGPAGPVAASLAPVSATAGEDDDDVVGDVLALLAAPLAPGPRAPRVEAAFLCRLRRDALVERRALHELGVYYLPDAEGAFRRGPGLNLTSGQYRAPVAGFYALAATLHVALGEPPRRGPPRPRDHLRLLICIQSRCQRNASLEAIMGLESSSELFTISVNGVLYLQMGQWTSVFLDNASGCSLTVRSGSHFSAVLLGV | effectively suppress | reduced the clipping |  | 
Ab 15.1: neutralising anti-ERFE antibody; heavy and light chain SEQ ID NO: 26 and 27 (antibody) heavy: EVQLQQSGPELVKPGASVKMSCKASGYTFTDYSMHWVKQSHGKSLEWIGYINPNSGGTSYNQKFKGKATLTVNKSSSTAYMELRSLTSEDSAVYYCVPYGYDDYWGQGTTLTVSSAKTTAPSVYPLAPVCGDTTGSSVTLGCLVKGYFPEPVTLTWNSGSLSSGVHTFPAVLQSDLYTLSSSVTVTSSTWPSQSITCNVAHPASSTKVDKKIEPRGPTIKPCPPCKCPAPNLEGGPSVFIFPPKIKDVLMISLSPIVTCVVVDVSEDDPDVQISWFVNNVEVHTAQTQTHREDYNSTLRVVSALPIQHQDWMSGKAFACAVNNKDLPAPIERTISKPKGSVRAPQVYVLPPPEEEMTKKQVTLTCMVTDFMPEDIYVEWTNNGKTELNYKNTEPVLDSDGSYFMYSKLRVEKKNWVERNSYSCSVVHEGLHNHHTTKSFSRTPG light: DVLMTQTPLSLPVSLGDQVSISCRSSQSIVHSNGNTYLEWYLQKPGQSPKLLIYKVSNRFSGVPDRFSGSGSGTDFTLRITRVAAEDLGVYYCFQGSHVPLTFGAGTKLELKRTDAAPTVSIFPPSSEQLTSGGASVVCFLNNFYPKDINVKWKIDGSERQNGVLNSWTDQDSKDSTYSMSSTLTLTKDEYERHNSYTCEATHKTSTSPIVKSFNRNEC |  |  | inhibit ERFE suppression of hepcidin production in a dose-dependent manner | prevent BMP inhibition

From patent US20210196823A1, “Methods of Treating Metabolic Disease” (Pfizer Inc., priority 2018, published 2021)
